The values that follow come from patent publication US20230142800A1 (COMMISSARIAT A L ENERGIE ATOMIQUE ET AUX ENERGIES …, published 2023).

Where a chain is given by its changes, count along the chain named.

The target in assay [1] is T1, biotinylated TNF alpha (human (definition in paragraph 32)); the …, UniProt P01375 77-233, biotinylated (site not stated)).
T1 construct: Used for FACS sorting of yeast libraries and immobilised on streptavidin sensors for BLI; also called TNFα; Tumor Necrosis Factor Alpha
The experiment in a line: yeast display FACS sorting on biotinylated TNF alpha, NGS enrichment, CDRH2 library.

The target of assay [2] is T1, biotinylated TNF alpha. The experiment in a line: yeast display MACS and FACS sorting on biotinylated TNF alpha, NGS enrichment, CDRH3 library. An excerpt: The second selection phase consists of selecting the mutant by the dissociation speed thereof.
The selection of DMS libraries was done in a single step by FACS on an ARIA III device (Becton Dickinson, Franklin Lakes, United States). […] After washing the cells with PBS 0.1% BSA, they were marked by using an APC coupled antibody directed against the OK domain (Thermo Fisher Scientific, Waltham, United States; dilution 1:100) and a PE coupled streptavidin (Thermo Fisher Scientific, Waltham, United States; dilution 1:100). The selection of libraries was done by means of rectangular sorting window containing 5% of the clones of interest according to the optimal parameters described by Kowalski et al. PLoS One 10, 1-23 (2015)). The selection of de-immunization libraries was done in several steps. […] The libraries underwent different steps of sorting by FACS.

T1 sequence (P01375 77-233 limits assumed): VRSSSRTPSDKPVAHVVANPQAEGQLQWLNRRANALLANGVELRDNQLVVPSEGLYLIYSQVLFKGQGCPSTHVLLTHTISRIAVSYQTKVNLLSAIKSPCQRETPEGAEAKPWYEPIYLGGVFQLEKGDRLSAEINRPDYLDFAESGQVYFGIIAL

B1: CDRH2 library mutant AAIAWNGGHH (Fab, V domains shown)
VH: EVQLVESGGGLVQPGRSLRLSCAASGFTFDDYAMHWVRQAPGKGLEWVAAIAWNGGHHDYADSVEGRFTISRDNAKNSLYLQMNSLRAEDTAVYYCAKVSYLSTASSLDYWGQGTLVTVSS
VL: not shown
Take B1: the Enrichment in assay [1] turned out to be 119.

B2: CDRH2 library mutant AAISWNGGHS (Fab, V domains shown)
VH: B1 VH with A52S, H58S
VL: not shown
Turning to B2, the Enrichment in assay [1] is 82.

B3: CDRH3 library mutant VYYCAKSKYLPT (Fab, V domains shown)
VH: B1 VH with A49S, A52T, G55S, H58I, V99S, S100K, S103P
VL: not shown
Take B3: the Enrichment in assay [2] worked out at 105000.

B4: CDRH2 library mutant AAISWNGGHA (Fab, V domains shown)
VH: B1 VH with A52S, H58A
VL: not shown
For the molecule B4, the Enrichment in assay [1] came to 75.

B5: CDRH3 library mutant VYYCAKTRYLPT (Fab, V domains shown)
VH: B1 VH with A49S, A52T, G55S, H58I, V99T, S100R, S103P
VL: not shown
With B5, the Enrichment in assay [2] was 707000.

B6: CDRH3 library mutant VYYCAKTKYLPT (Fab, V domains shown)
VH: B1 VH with A49S, A52T, G55S, H58I, V99T, S100K, S103P
VL: not shown
On to B6, for which the Enrichment in assay [2] was determined as 1.06e+06.

B7: CDRH2 library mutant GAITWNGGHR (Fab, V domains shown)
VH: B1 VH with A49G, A52T, H58R
VL: not shown
In assay [1], B7 returned an Enrichment of 64.

B8: CDRH2 library mutant AAINWNSGHR (Fab, V domains shown)
VH: B1 VH with A52N, G55S, H58R
VL: not shown
For B8, the Enrichment in assay [1] was 122.

B9: CDRH2 library mutant AAITWNGGHT (Fab, V domains shown)
VH: B1 VH with A52T, H58T
VL: not shown
As for B9, the Enrichment in assay [1] was found to be 91.

B10: CDRH3 library mutant VYYCAKTKYLPS (Fab, V domains shown)
VH: B1 VH with A49S, A52T, G55S, H58I, V99T, S100K, S103P, T104S
VL: not shown
In assay [2], B10 came in with an Enrichment of 87100.

B11: CDRH2 library mutant GAINWNGGHT (Fab, V domains shown)
VH: B1 VH with A49G, A52N, H58T
VL: not shown
In assay [1], B11 registered an Enrichment of 62.

B12: CDRH3 library mutant VYYCAKTHYLPT (Fab, V domains shown)
VH: B1 VH with A49S, A52T, G55S, H58I, V99T, S100H, S103P
VL: not shown
Molecule B12 registered an Enrichment in assay [2] of 61200.

B13: CDRH3 library mutant VYYCAKVKYLPP (Fab, V domains shown)
VH: B1 VH with A49S, A52T, G55S, H58I, S100K, S103P, T104P
VL: not shown
On to B13, for which, in assay [2], the Enrichment came out at 61600.

B14: CDRH3 library mutant VYYCAKTRYTPT (Fab, V domains shown)
VH: B1 VH with A49S, A52T, G55S, H58I, V99T, S100R, L102T, S103P
VL: not shown
B14: the Enrichment in assay [2] was determined as 80800.

B15: CDRH2 library mutant GAISWNGGHT (Fab, V domains shown)
VH: B1 VH with A49G, A52S, H58T
VL: not shown
In turn, B15 came in with an Enrichment in assay [1] of 133.

B16: CDRH3 library mutant LYYCAKTKYLPS (Fab, V domains shown)
VH: B1 VH with A49S, A52T, G55S, H58I, V93L, V99T, S100K, S103P, T104S
VL: not shown
The molecule B16 showed an Enrichment in assay [2] of 65400.

B17: CDRH2 library mutant GAISWNGGHH (Fab, V domains shown)
VH: B1 VH with A49G, A52S
VL: not shown
Consider B17, for which the Enrichment in assay [1] was found to be 66.

B18: CDRH2 library mutant AAISWNGGHQ (Fab, V domains shown)
VH: B1 VH with A52S, H58Q
VL: not shown
On to B18, for which the Enrichment in assay [1] is 192.

B19: CDRH2 library mutant AAIAWNGGHT (Fab, V domains shown)
VH: B1 VH with H58T
VL: not shown
B19 registered an Enrichment in assay [1] of 144.

B20: CDRH2 library mutant AAINWNGGHH (Fab, V domains shown)
VH: B1 VH with A52N
VL: not shown
With B20, the Enrichment in assay [1] came to 132.

B21: CDRH3 library mutant VYYCAKVTYLPS (Fab, V domains shown)
VH: B1 VH with A49S, A52T, G55S, H58I, S100T, S103P, T104S
VL: not shown
Consider B21, for which the Enrichment in assay [2] amounted to 241000.

B22: CDRH3 library mutant VYYCAKTNYLPT (Fab, V domains shown)
VH: B1 VH with A49S, A52T, G55S, H58I, V99T, S100N, S103P
VL: not shown
For the molecule B22, the Enrichment in assay [2] amounted to 51900.

B23: CDRH2 library mutant GAINWNGGHR (Fab, V domains shown)
VH: B1 VH with A49G, A52N, H58R
VL: not shown
For the molecule B23, in assay [1], the Enrichment amounted to 222.

B24: CDRH3 library mutant LYYCAKTTYLPS (Fab, V domains shown)
VH: B1 VH with A49S, A52T, G55S, H58I, V93L, V99T, S100T, S103P, T104S
VL: not shown
As to B24, in assay [2], the Enrichment came out at 151000.

B25: CDRH2 library mutant AAINWNGGHR (Fab, V domains shown)
VH: B1 VH with A52N, H58R
VL: not shown
B25 showed an Enrichment in assay [1] of 417.

B26: CDRH2 library mutant AAITWNGGHR (Fab, V domains shown)
VH: B1 VH with A52T, H58R
VL: not shown
Take B26: in assay [1], the Enrichment came to 213.

B27: CDRH2 library mutant AAIAWNGGHS (Fab, V domains shown)
VH: B1 VH with H58S
VL: not shown
In the case of B27, the Enrichment in assay [1] was 93.

B28: CDRH3 library mutant LYYCAKTKYLPT (Fab, V domains shown)
VH: B1 VH with A49S, A52T, G55S, H58I, V93L, V99T, S100K, S103P
VL: not shown
On to B28, for which, in assay [2], the Enrichment was determined as 97400.

B29: CDRH2 library mutant AAINWNSGHQ (Fab, V domains shown)
VH: B1 VH with A52N, G55S, H58Q
VL: not shown
In assay [1], B29 returned an Enrichment of 105.

B30: CDRH3 library mutant LYYCAKTRYLPS (Fab, V domains shown)
VH: B1 VH with A49S, A52T, G55S, H58I, V93L, V99T, S100R, S103P, T104S
VL: not shown
For the molecule B30, the Enrichment in assay [2] is 63500.

B31: CDRH3 library mutant LYYCAKTRYLPT (Fab, V domains shown)
VH: B1 VH with A49S, A52T, G55S, H58I, V93L, V99T, S100R, S103P
VL: not shown
B31 displayed an Enrichment in assay [2] of 59400.

B32: CDRH3 library mutant LYYCAKVKYLPS (Fab, V domains shown)
VH: B1 VH with A49S, A52T, G55S, H58I, V93L, S100K, S103P, T104S
VL: not shown
The molecule B32 displayed an Enrichment in assay [2] of 188000.

B33: CDRH3 library mutant VYYCAKTSYLPS (Fab, V domains shown)
VH: B1 VH with A49S, A52T, G55S, H58I, V99T, S103P, T104S
VL: not shown
B33 displayed an Enrichment in assay [2] of 371000.

B34: CDRH2 library mutant AAISWNGGHH (Fab, V domains shown)
VH: B1 VH with A52S
VL: not shown
B34: in assay [1], the Enrichment worked out at 164.

B35: CDRH3 library mutant VYYCAKAHHLPT (Fab, V domains shown)
VH: B1 VH with A49S, A52T, G55S, H58I, V99A, S100H, Y101H, S103P
VL: not shown
B35: in assay [2], the Enrichment is 122000.

B36: CDRH2 library mutant AAIAWNGGHR (Fab, V domains shown)
VH: B1 VH with H58R
VL: not shown
B36 displayed an Enrichment in assay [1] of 197.

B37: CDRH3 library mutant LYYCAKTTYLPT (Fab, V domains shown)
VH: B1 VH with A49S, A52T, G55S, H58I, V93L, V99T, S100T, S103P
VL: not shown
For B37, the Enrichment in assay [2] was 54100.

B38: CDRH2 library mutant AAIAWNGGHQ (Fab, V domains shown)
VH: B1 VH with H58Q
VL: not shown
Regarding B38, the Enrichment in assay [1] is 109.

B39: CDRH3 library mutant VYYCAKAKYLPT (Fab, V domains shown)
VH: B1 VH with A49S, A52T, G55S, H58I, V99A, S100K, S103P
VL: not shown
As to B39, the Enrichment in assay [2] is 163000.

B40: CDRH3 library mutant VYYCAKTTYLPS (Fab, V domains shown)
VH: B1 VH with A49S, A52T, G55S, H58I, V99T, S100T, S103P, T104S
VL: not shown
Turning to B40, the Enrichment in assay [2] amounted to 149000.

B41: CDRH2 library mutant AAISWNGGHR (Fab, V domains shown)
VH: B1 VH with A52S, H58R
VL: not shown
B41: in assay [1], the Enrichment came out at 382.

B42: CDRH2 library mutant GAISWNGGHR (Fab, V domains shown)
VH: B1 VH with A49G, A52S, H58R
VL: not shown
The molecule B42 registered an Enrichment in assay [1] of 279.

B43: CDRH3 library mutant VYYCAKTTYLPT (Fab, V domains shown)
VH: B1 VH with A49S, A52T, G55S, H58I, V99T, S100T, S103P
VL: not shown
Take B43: the Enrichment in assay [2] came to 1.29e+06.

B44: CDRH2 library mutant AAISWNGGHT (Fab, V domains shown)
VH: B1 VH with A52S, H58T
VL: not shown
B44 had an Enrichment in assay [1] of 193.

B45: CDRH3 library mutant LYYCAKVKYTPT (Fab, V domains shown)
VH: B1 VH with A49S, A52T, G55S, H58I, V93L, S100K, L102T, S103P
VL: not shown
In assay [2], B45 had an Enrichment of 110000.

B46: CDRH3 library mutant VYYCAKVKYLPA (Fab, V domains shown)
VH: B1 VH with A49S, A52T, G55S, H58I, S100K, S103P, T104A
VL: not shown
In assay [2], B46 showed an Enrichment of 81400.

B47: CDRH3 library mutant VYYCAKVAYLPS (Fab, V domains shown)
VH: B1 VH with A49S, A52T, G55S, H58I, S100A, S103P, T104S
VL: not shown
Turning to B47, in assay [2], the Enrichment is 62000.

B48: CDRH3 library mutant LYYCAKTNYLPT (Fab, V domains shown)
VH: B1 VH with A49S, A52T, G55S, H58I, V93L, V99T, S100N, S103P
VL: not shown
With B48, the Enrichment in assay [2] was found to be 448000.

B49: CDRH3 library mutant LYYCAKVKYLPT (Fab, V domains shown)
VH: B1 VH with A49S, A52T, G55S, H58I, V93L, S100K, S103P
VL: not shown
In assay [2], B49 registered an Enrichment of 251000.

B50: CDRH3 library mutant VYYCAKVTYTPS (Fab, V domains shown)
VH: B1 VH with A49S, A52T, G55S, H58I, S100T, L102T, S103P, T104S
VL: not shown
Take B50: in assay [2], the Enrichment was determined as 99200.

B51: CDRH3 library mutant VYYCAKTGYLPT (Fab, V domains shown)
VH: B1 VH with A49S, A52T, G55S, H58I, V99T, S100G, S103P
VL: not shown
In assay [2], B51 yielded an Enrichment of 100000.

B52: CDRH3 library mutant VYYCAKVKYLPS (Fab, V domains shown)
VH: B1 VH with A49S, A52T, G55S, H58I, S100K, S103P, T104S
VL: not shown
As to B52, the Enrichment in assay [2] came to 71900.
